± gives the uncertainty stated by the source.

This data set is described as follows: amyloid nucleation score (Sup35N fusion, yeast selection) (log enrichment); library NNK3; higher = more nucleation; inactive = no reads after selection. Summed up:
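Sup35N fusions to peptides of 20 random codons were expressed in psi-negative yeast, induced 24 hours with 100 μM copper sulfate, and grown 7 days at 30°C on medium lacking adenine and uracil. Input and output plasmid inserts were sequenced by Illumina. The nucleation score is the DiMSum log enrichment of output over input reads, centred on the mode score of non-aggregating sequences. Sequences with under 100 input reads were excluded.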
For the substance AAEDRSWSHPATQFLLVVRQ, the amyloid nucleation score entry is “inactive”.

On to AALSSTW, for which the amyloid nucleation score result is “inactive”.

AAPMS: the amyloid nucleation score result is “inactive”.

For the substance AAYGELL, the amyloid nucleation score result was “inactive”.

On to ACAFS, for which the amyloid nucleation score entry is “inactive”.

Take ACFVKY: the amyloid nucleation score result was “inactive”.

In the case of ACKSGHLNSHKNGYYV, the amyloid nucleation score entry was “inactive”.

As to ACLYY, the amyloid nucleation score result was “inactive”.

Substance ACSVHFFHARW returned an amyloid nucleation score of 1.49 ± 0.14.

Consider ACYAAQCWSNF, for which the amyloid nucleation score entry is “inactive”.

For ADFGLHRNCRRGCLGMFFL, the amyloid nucleation score entry is “inactive”.

With ADPDVR, the amyloid nucleation score result was “inactive”.

For the substance ADVCNAFRVISICLYAIIVL, the amyloid nucleation score result was “inactive”.

Consider ADVDCFTVNLVYSRYAFVTT, for which the amyloid nucleation score result is “inactive”.

AEIVCICV: the amyloid nucleation score came out at 1.11 ± 0.17.

Regarding AEMDRRATFTGDHGDGFAIV, the amyloid nucleation score entry is “inactive”.

Turning to AEVHDDHPMGSDAHIYGTGG, the amyloid nucleation score entry was “inactive”.

Turning to AEYQPFRQRHVL, the amyloid nucleation score entry is “inactive”.

For AFIFGCHNGTFKYGKYTCRG, the amyloid nucleation score result is “inactive”.

For the substance AFINMMWNSTMDLCRPFLPT, the amyloid nucleation score was 0.698 ± 0.27.

As to AFKNYVPMFTW, the amyloid nucleation score was -0.335 ± 0.73.

As to AFMNWVARRKTRWGGLYGGN, the amyloid nucleation score entry was “inactive”.

Turning to AFNHCETDRLTCL, the amyloid nucleation score entry was “inactive”.

AFRSTSQYVY: the amyloid nucleation score result was “inactive”.

Regarding AFSDGTLSLTSKVRLGDS, the amyloid nucleation score result was “inactive”.

As to AFVGRWYCGFVASVIFEMQG, the amyloid nucleation score came to 0.069 ± 0.47.

On to AFVSPYR, for which the amyloid nucleation score entry was “inactive”.

In the case of AFYVVLTNTVYVGWLQE, the amyloid nucleation score entry is “inactive”.

For AFYYRVELVYLAC, the amyloid nucleation score result was “inactive”.

As to AGAGLNKLSVLTVTTLLMIL, the amyloid nucleation score entry was “inactive”.

Regarding AGAVVDV, the amyloid nucleation score result is “inactive”.

On to AGDLNYRSGLSGRNYARGFT, for which the amyloid nucleation score entry is “inactive”.

AGPKALIVMPKICDGDIWME: the amyloid nucleation score entry was “inactive”.

Consider AGSCVMFGPSW, for which the amyloid nucleation score entry is “inactive”.

Take AGSIGPVRSRGIMLTRLEV: the amyloid nucleation score was -0.42 ± 1.8.

In the case of AHFISFNRYHVARFINAHRL, the amyloid nucleation score result is “inactive”.

Turning to AIDHSFT, the amyloid nucleation score entry was “inactive”.

Take AIELIFVLWAFAHCAPCFEL: the amyloid nucleation score entry is “inactive”.

Turning to AIKLC, the amyloid nucleation score result is “inactive”.

In the case of AIKYICSFSSVSVMR, the amyloid nucleation score result is “inactive”.

As for AIKYILRAALNLNSSSTELE, the amyloid nucleation score result is “inactive”.

In the case of AIMFLFLYTRGAYAYYLGLL, the amyloid nucleation score entry is “inactive”.

As to AIRLYLDGIHQMHYYHTLCL, the amyloid nucleation score result is “inactive”.

For AISYFSSWGAM, the amyloid nucleation score was determined as 0.485 ± 0.24.

AKNSKKSMLSVNGDRNDQSF: the amyloid nucleation score entry was “inactive”.

In the case of AKWLEEKLMPAIDVVPGQWL, the amyloid nucleation score entry was “inactive”.

ALCKVMSKLPSISW: the amyloid nucleation score entry is “inactive”.

As to ALFLIFSRELHSNDNLLECS, the amyloid nucleation score worked out at 0.367 ± 0.14.

Consider ALFSLSWLNQRDSIWVKSDQ, for which the amyloid nucleation score result is “inactive”.

For ALFVGFRF, the amyloid nucleation score is 1.55 ± 0.12.

Take ALIRITRYYLSFTGY: the amyloid nucleation score result is “inactive”.

Take ALLKD: the amyloid nucleation score result is “inactive”.

For ALNIPVTRGTTPAWFLILLD, the amyloid nucleation score entry was “inactive”.

ALNLVLLLCVTRRSRLSQSS: the amyloid nucleation score result was “inactive”.

Substance ALNSLYTFMDRNNRELECGL gave an amyloid nucleation score of -0.688 ± 0.88.

ALPYCSLVGCYVCKCRLMWL: the amyloid nucleation score is 0.541 ± 0.34.

As for ALSDDTDTQAANQLHGCTGW, the amyloid nucleation score result is “inactive”.

In the case of ALSHITDLQFLYSIVFQAHM, the amyloid nucleation score was -0.674 ± 1.3.

For ALSSNKSCVQYS, the amyloid nucleation score result was “inactive”.

Take ALVLNRVLRLDVGVSSGCRL: the amyloid nucleation score result is “inactive”.

For the substance ALWNTFFLCENTFRMVGFVC, the amyloid nucleation score entry was “inactive”.

Regarding ALYERWSTDNVWRRSSQEFL, the amyloid nucleation score result was “inactive”.

Turning to AMSTPIGMGEVKFKCFILWL, the amyloid nucleation score worked out at 0.56 ± 0.18.

For the substance AMTCNDYSRYVF, the amyloid nucleation score entry is “inactive”.

For AMVRNVYSCLRNRTCFLSSL, the amyloid nucleation score result is “inactive”.

AMVYMMNLEIHVYSIRYA had an amyloid nucleation score of 1.68 ± 0.094.

For the substance ANCKG, the amyloid nucleation score result is “inactive”.

For the substance ANFQWE, the amyloid nucleation score result was “inactive”.

Regarding ANIGKIVKEHRQQSIQHCID, the amyloid nucleation score entry is “inactive”.

For the substance ANSYLTYN, the amyloid nucleation score result was “inactive”.

As to ANVLKFIWAFVWASVALLWS, the amyloid nucleation score entry is “inactive”.

On to ANYFTPTNCSVRLRWISDPT, for which the amyloid nucleation score result is “inactive”.

ANYVCKNAVYVMQNNGLVH: the amyloid nucleation score entry was “inactive”.

APDQLF: the amyloid nucleation score result was “inactive”.

Regarding APDVQYFYSLQD, the amyloid nucleation score result is “inactive”.

For the substance APLSNFALHIPEELRLESSF, the amyloid nucleation score was 0.176 ± 0.77.

For the substance APSPPMNFSPCKLDLPCWAI, the amyloid nucleation score result is “inactive”.

APYNFKDYCISGIWSGYIMF: the amyloid nucleation score entry was “inactive”.

In the case of ARFISVCEHEARLRERTCMC, the amyloid nucleation score entry was “inactive”.

For the substance ARKLFCQTVEENHS, the amyloid nucleation score entry was “inactive”.

Take ARKMRKAMYLRGTSALVPCL: the amyloid nucleation score entry was “inactive”.

On to ARLRVVIDRCLYRGLSQLQP, for which the amyloid nucleation score entry was “inactive”.

For the substance ARPNGTTKCVDNGRKPVRII, the amyloid nucleation score result is “inactive”.

Take ARQTVPSCTLYYWFLSTVKY: the amyloid nucleation score entry is “inactive”.

With ARSDVSCPWSGRMATVCLTV, the amyloid nucleation score entry was “inactive”.

Consider ASAYSTYKVERLGFDGVQSS, for which the amyloid nucleation score entry is “inactive”.

Regarding ASFSMG, the amyloid nucleation score entry was “inactive”.

As to ASHMMQRIMTRQ, the amyloid nucleation score is -0.308 ± 0.84.

As for ASHRGYRQRRKDVFHGIEA, the amyloid nucleation score result was “inactive”.

ASIHMFVLYRWSFG: the amyloid nucleation score was determined as 0.013 ± 0.75.

Consider ASILRTKMLVCKGGKILQLQ, for which the amyloid nucleation score result was “inactive”.

With ASIPGQRYSEPVKPGTCMYV, the amyloid nucleation score came to 1.3 ± 0.14.

In the case of ASLLLTYWVVTEVCRLDLGL, the amyloid nucleation score result is “inactive”.

With ASLPVLPSNPDKSEGAKGHE, the amyloid nucleation score is -0.681 ± 1.2.

Turning to ASLRCINFMCWLSQTLGVLL, the amyloid nucleation score result is “inactive”.

In the case of ASLTYY, the amyloid nucleation score entry was “inactive”.

With ASNSIKWFADHFPHSFVN, the amyloid nucleation score result is “inactive”.

In the case of ASQDI, the amyloid nucleation score result is “inactive”.

Turning to ASQSSVLPWNS, the amyloid nucleation score result is “inactive”.

In turn, ASRAESVVGSFFCFFL displayed an amyloid nucleation score of 2.17 ± 0.087.

In the case of ASRTAHVSEVQFGCAPGSER, the amyloid nucleation score entry was “inactive”.

As for ASVMLNFC, the amyloid nucleation score result is “inactive”.

On to ATFQSRFFCCRSRGGTLGCD, for which the amyloid nucleation score entry is “inactive”.

In turn, ATFRMGRKVPWS returned an amyloid nucleation score of 1.01 ± 0.23.

Regarding ATGVMLNDDS, the amyloid nucleation score result is “inactive”.

ATGYGL: the amyloid nucleation score result is “inactive”.

Regarding ATMKWFCIKHSFFPIGTCYA, the amyloid nucleation score entry was “inactive”.

Consider ATRSLINQQCCRNYASKVLN, for which the amyloid nucleation score entry is “inactive”.

With AVATCP, the amyloid nucleation score entry is “inactive”.

For the substance AVKHHSSTFIFTMGIKLLWL, the amyloid nucleation score result was “inactive”.

With AVLSLCINGIVALKGDSGCC, the amyloid nucleation score stood at 0.478 ± 0.21.

In the case of AVMNVHFDSSVMEPIDLNRW, the amyloid nucleation score result is “inactive”.

Consider AVNMLESFFGGVPLRSLCFV, for which the amyloid nucleation score result was “inactive”.

On to AVPDVKSAKVDLVNFILAVC, for which the amyloid nucleation score entry was “inactive”.

For the substance AVTSVSWLIIIDGALRSVKG, the amyloid nucleation score entry was “inactive”.

Take AVVPAFDLLWRNRLITSMTS: the amyloid nucleation score result was “inactive”.

In turn, AVVSIVVLRDKRTFLGRLYL gave an amyloid nucleation score of 1.53 ± 0.087.

On to AVWNFTQFYAENEGHNVSLS, for which the amyloid nucleation score result is “inactive”.

As to AWRKPCWGRVNYFLYIVGAG, the amyloid nucleation score was 2.33 ± 0.088.

AWRSMSGVTYPQGTSLPFSK: the amyloid nucleation score entry was “inactive”.

In turn, AWVHLPGQESGYYCCFMNEM showed an amyloid nucleation score of 1.63 ± 0.12.

As for AWYFAP, the amyloid nucleation score result is “inactive”.

On to AYIFIWWKGANKFVSFNKII, for which the amyloid nucleation score worked out at 0.684 ± 0.27.

For the substance AYLCGANINL, the amyloid nucleation score entry is “inactive”.

The substance AYMYSTILGSMPS came in with an amyloid nucleation score of 1.44 ± 0.11.

Consider AYSRIHSWRMVCKRSNNGVG, for which the amyloid nucleation score was found to be 1.41 ± 0.1.

Take AYWCG: the amyloid nucleation score result is “inactive”.

In the case of AYWSFFPWGLYARLPGTPVV, the amyloid nucleation score entry was “inactive”.

For the substance CALGEKLFSGSAYMVYPG, the amyloid nucleation score entry is “inactive”.

CASSWLF: the amyloid nucleation score entry was “inactive”.

Consider CAWVDRYYKKVIGANRGSLS, for which the amyloid nucleation score entry is “inactive”.

Take CCAGSLLLNRVQV: the amyloid nucleation score result was “inactive”.

Take CCKSVKFKSLPARN: the amyloid nucleation score turned out to be 0.725 ± 0.24.

As for CCLFMLFMRMRTHL, the amyloid nucleation score result is “inactive”.

The values above are taken from the supplement of paper PMC12042874.
